Results from PMC9482650, “Quantitative fragmentomics allow affinity mapping of interactomes” (Nature Communications, 2022).

target: PDZRN4_1, Q6ZMN7; assay: holdup assay; design: key: below the threshold = too weak to quantify, mostly under pKd 3.1 to 4; conditions: plain residues with an end cap or a label only (N-terminal biotin on a linker: ado-ado)
Sequence (Q6ZMN7 213-318): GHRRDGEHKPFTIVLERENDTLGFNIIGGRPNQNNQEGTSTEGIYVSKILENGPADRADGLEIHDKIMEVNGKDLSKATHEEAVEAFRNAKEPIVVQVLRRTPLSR

| Binder | pKd |
| --- | --- |
| TNSKQGETTV [FZD1, Q9UP38] | 4.06 |

target: DLG1_1, Q12959; assay: holdup assay; design: key: below the threshold = too weak to quantify, mostly under pKd 3.1 to 4; conditions: plain residues with an end cap or a label only (N-terminal biotin on a linker: ado-ado)

| Binder | pKd |
| --- | --- |
| TNSKQGETTV [FZD1, Q9UP38] | 4.61 |

target: T1, PTPN13_1, Q12923; assay: holdup assay; design: key: below the threshold = too weak to quantify, mostly under pKd 3.1 to 4; conditions: plain residues with an end cap or a label only (N-terminal biotin on a linker: ado-ado)
T1 sequence (Q12923 1088-1188, limits assumed, looked up): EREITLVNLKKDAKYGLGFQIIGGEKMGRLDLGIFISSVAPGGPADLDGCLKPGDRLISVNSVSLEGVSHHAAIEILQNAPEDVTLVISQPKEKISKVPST

| Binder | pKd |
| --- | --- |
| TNSKQGETTV [FZD1, Q9UP38] | below the threshold |

target: AHNAK1, Q09666; assay: holdup assay; design: key: below the threshold = too weak to quantify, mostly under pKd 3.1 to 4; conditions: plain residues with an end cap or a label only (N-terminal biotin on a linker: ado-ado)
Sequence (Q09666 4-100): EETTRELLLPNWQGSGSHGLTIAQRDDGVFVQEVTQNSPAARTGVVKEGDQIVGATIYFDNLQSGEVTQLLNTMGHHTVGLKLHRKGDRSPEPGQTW

| Binder | pKd |
| --- | --- |
| TNSKQGETTV [FZD1, Q9UP38] | below the threshold |

target: T2, APBA3_1, O96018; assay: holdup assay; design: key: below the threshold = too weak to quantify, mostly under pKd 3.1 to 4; conditions: plain residues with an end cap or a label only (N-terminal biotin on a linker: ado-ado)
T2 sequence (O96018 389-490, limits assumed, looked up): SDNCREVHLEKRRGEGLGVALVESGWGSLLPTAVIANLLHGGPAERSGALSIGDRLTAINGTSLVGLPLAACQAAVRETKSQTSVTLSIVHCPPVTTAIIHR

| Binder | pKd |
| --- | --- |
| TNSKQGETTV [FZD1, Q9UP38] | below the threshold |

target: Inadl_8, Q8NI35; assay: holdup assay; design: key: below the threshold = too weak to quantify, mostly under pKd 3.1 to 4; conditions: plain residues with an end cap or a label only (N-terminal biotin on a linker: ado-ado)
Sequence (Q8NI35 1425-1530): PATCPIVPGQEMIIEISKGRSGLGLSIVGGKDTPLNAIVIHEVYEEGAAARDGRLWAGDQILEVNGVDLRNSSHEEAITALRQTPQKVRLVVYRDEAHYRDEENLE

| Binder | pKd |
| --- | --- |
| TNSKQGETTV [FZD1, Q9UP38] | below the threshold |

target: T3, SHANK1, Q9Y566; assay: holdup assay; design: key: below the threshold = too weak to quantify, mostly under pKd 3.1 to 4; conditions: plain residues with an end cap or a label only (N-terminal biotin on a linker: ado-ado)
T3 sequence (Q9Y566 658-767, limits assumed, looked up): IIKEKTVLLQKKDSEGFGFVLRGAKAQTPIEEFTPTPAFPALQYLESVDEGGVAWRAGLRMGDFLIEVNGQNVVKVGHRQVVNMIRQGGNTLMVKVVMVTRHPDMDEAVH

| Binder | pKd |
| --- | --- |
| TNSKQGETTV [FZD1, Q9UP38] | 3.57 |

target: DLG4_2, P78352; assay: holdup assay; design: key: below the threshold = too weak to quantify, mostly under pKd 3.1 to 4; conditions: plain residues with an end cap or a label only (N-terminal biotin on a linker: ado-ado)
Sequence (P78352 155-259): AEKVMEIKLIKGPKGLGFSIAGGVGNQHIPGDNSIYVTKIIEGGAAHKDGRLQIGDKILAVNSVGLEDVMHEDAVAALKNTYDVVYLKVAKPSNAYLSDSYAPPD

| Binder | pKd |
| --- | --- |
| TNSKQGETTV [FZD1, Q9UP38] | 4.94 |

target: DLG4_3, P78352; assay: holdup assay; design: key: below the threshold = too weak to quantify, mostly under pKd 3.1 to 4; conditions: plain residues with an end cap or a label only (N-terminal biotin on a linker: ado-ado)
Sequence (P78352 306-403): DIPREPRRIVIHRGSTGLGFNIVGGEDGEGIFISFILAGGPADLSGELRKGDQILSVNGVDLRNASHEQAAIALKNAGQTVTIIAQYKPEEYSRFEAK

| Binder | pKd |
| --- | --- |
| TNSKQGETTV [FZD1, Q9UP38] | 3.76 |

target: GRID2IP_1, A4D2P6; assay: holdup assay; design: key: below the threshold = too weak to quantify, mostly under pKd 3.1 to 4; conditions: plain residues with an end cap or a label only (N-terminal biotin on a linker: ado-ado)
Sequence (A4D2P6 1-87): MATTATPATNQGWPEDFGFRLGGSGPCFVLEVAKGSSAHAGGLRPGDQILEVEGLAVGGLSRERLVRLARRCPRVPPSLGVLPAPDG

| Binder | pKd |
| --- | --- |
| TNSKQGETTV [FZD1, Q9UP38] | 3.66 |

target: TJP1_3, Q07157; assay: holdup assay; design: key: below the threshold = too weak to quantify, mostly under pKd 3.1 to 4; conditions: plain residues with an end cap or a label only (N-terminal biotin on a linker: ado-ado)
Sequence (Q07157 416-512): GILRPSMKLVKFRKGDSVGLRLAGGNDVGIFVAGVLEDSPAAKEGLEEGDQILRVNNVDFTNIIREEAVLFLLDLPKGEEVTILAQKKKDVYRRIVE

| Binder | pKd |
| --- | --- |
| TNSKQGETTV [FZD1, Q9UP38] | 3.69 |

target: MAGI1_2, Q96QZ7; assay: holdup assay; design: key: below the threshold = too weak to quantify, mostly under pKd 3.1 to 4; conditions: plain residues with an end cap or a label only (N-terminal biotin on a linker: ado-ado)
Sequence (Q96QZ7 456-580): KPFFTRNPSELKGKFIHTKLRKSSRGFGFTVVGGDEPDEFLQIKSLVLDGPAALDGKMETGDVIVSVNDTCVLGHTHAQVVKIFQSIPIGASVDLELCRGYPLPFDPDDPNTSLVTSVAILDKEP

| Binder | pKd |
| --- | --- |
| TNSKQGETTV [FZD1, Q9UP38] | 3.82 |

target: GRID2IP_2, A4D2P6; assay: holdup assay; design: key: below the threshold = too weak to quantify, mostly under pKd 3.1 to 4; conditions: plain residues with an end cap or a label only (N-terminal biotin on a linker: ado-ado)
Sequence (A4D2P6 272-370): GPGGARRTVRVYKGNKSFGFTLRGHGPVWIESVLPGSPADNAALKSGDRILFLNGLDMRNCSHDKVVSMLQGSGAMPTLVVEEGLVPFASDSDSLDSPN

| Binder | pKd |
| --- | --- |
| TNSKQGETTV [FZD1, Q9UP38] | 3.79 |

target: FRMPD2_3, Q68DX3; assay: holdup assay; design: key: below the threshold = too weak to quantify, mostly under pKd 3.1 to 4; conditions: plain residues with an end cap or a label only (N-terminal biotin on a linker: ado-ado)
Sequence (Q68DX3 1073-1166): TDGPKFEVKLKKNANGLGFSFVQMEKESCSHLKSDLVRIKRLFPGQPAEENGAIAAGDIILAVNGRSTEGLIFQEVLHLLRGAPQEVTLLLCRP

| Binder | pKd |
| --- | --- |
| TNSKQGETTV [FZD1, Q9UP38] | 3.74 |

target: DLG5_1, Q8TDM6; assay: holdup assay; design: key: below the threshold = too weak to quantify, mostly under pKd 3.1 to 4; conditions: plain residues with an end cap or a label only (N-terminal biotin on a linker: ado-ado)
Sequence (Q8TDM6 617-713): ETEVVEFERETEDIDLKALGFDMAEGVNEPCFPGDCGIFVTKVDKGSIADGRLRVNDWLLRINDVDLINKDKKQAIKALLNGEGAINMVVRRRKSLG

| Binder | pKd |
| --- | --- |
| TNSKQGETTV [FZD1, Q9UP38] | 3.91 |

target: T4, MPDZ_12, O75970; assay: holdup assay; design: key: below the threshold = too weak to quantify, mostly under pKd 3.1 to 4; conditions: plain residues with an end cap or a label only (N-terminal biotin on a linker: ado-ado)
T4 sequence (O75970 1857-1958, limits assumed, looked up): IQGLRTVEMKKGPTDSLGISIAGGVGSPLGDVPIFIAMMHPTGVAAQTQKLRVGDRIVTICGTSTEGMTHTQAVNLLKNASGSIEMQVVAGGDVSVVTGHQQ

| Binder | pKd |
| --- | --- |
| TNSKQGETTV [FZD1, Q9UP38] | below the threshold |

target: T5, GRIP1_7, Q9Y3R0; assay: holdup assay; design: key: below the threshold = too weak to quantify, mostly under pKd 3.1 to 4; conditions: plain residues with an end cap or a label only (N-terminal biotin on a linker: ado-ado)
T5 sequence (Q9Y3R0 999-1096, limits assumed, looked up): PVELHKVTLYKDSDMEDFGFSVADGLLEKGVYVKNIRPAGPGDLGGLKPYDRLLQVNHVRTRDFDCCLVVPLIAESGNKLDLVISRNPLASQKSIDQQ

| Binder | pKd |
| --- | --- |
| TNSKQGETTV [FZD1, Q9UP38] | below the threshold |

target: NHERF2_2, Q15599; assay: holdup assay; design: key: below the threshold = too weak to quantify, mostly under pKd 3.1 to 4; conditions: plain residues with an end cap or a label only (N-terminal biotin on a linker: ado-ado)
Sequence (Q15599 142-238): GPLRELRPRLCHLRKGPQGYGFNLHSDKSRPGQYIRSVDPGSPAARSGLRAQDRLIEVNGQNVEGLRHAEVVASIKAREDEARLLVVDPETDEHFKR

| Binder | pKd |
| --- | --- |
| TNSKQGETTV [FZD1, Q9UP38] | 3.51 |

target: T6, GRIP1_3, Q9Y3R0; assay: holdup assay; design: key: below the threshold = too weak to quantify, mostly under pKd 3.1 to 4; conditions: plain residues with an end cap or a label only (N-terminal biotin on a linker: ado-ado)
T6 sequence (Q9Y3R0 247-346, limits assumed, looked up): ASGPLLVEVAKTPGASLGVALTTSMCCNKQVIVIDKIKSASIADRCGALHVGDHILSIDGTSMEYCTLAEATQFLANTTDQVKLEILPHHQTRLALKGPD

| Binder | pKd |
| --- | --- |
| TNSKQGETTV [FZD1, Q9UP38] | below the threshold |

target: T7, DFNB31_3, Q9P202; assay: holdup assay; design: key: below the threshold = too weak to quantify, mostly under pKd 3.1 to 4; conditions: plain residues with an end cap or a label only (N-terminal biotin on a linker: ado-ado)
T7 sequence (Q9P202 811-907, limits assumed, looked up): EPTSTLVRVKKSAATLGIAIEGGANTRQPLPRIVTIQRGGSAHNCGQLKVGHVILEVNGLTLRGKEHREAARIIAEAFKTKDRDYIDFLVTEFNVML

| Binder | pKd |
| --- | --- |
| TNSKQGETTV [FZD1, Q9UP38] | 4.06 |

target: T8, DFNB31_1, Q9P202; assay: holdup assay; design: key: below the threshold = too weak to quantify, mostly under pKd 3.1 to 4; conditions: plain residues with an end cap or a label only (N-terminal biotin on a linker: ado-ado)
T8 sequence (Q9P202 135-233, limits assumed, looked up): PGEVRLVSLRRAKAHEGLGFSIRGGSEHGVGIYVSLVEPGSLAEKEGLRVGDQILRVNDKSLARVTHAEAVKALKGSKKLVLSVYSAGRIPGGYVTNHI

| Binder | pKd |
| --- | --- |
| TNSKQGETTV [FZD1, Q9UP38] | 3.77 |

target: T9, MPP6, Q9NZW5; assay: holdup assay; design: key: below the threshold = too weak to quantify, mostly under pKd 3.1 to 4; conditions: plain residues with an end cap or a label only (N-terminal biotin on a linker: ado-ado)
T9 sequence (Q9NZW5 125-219, limits assumed, looked up): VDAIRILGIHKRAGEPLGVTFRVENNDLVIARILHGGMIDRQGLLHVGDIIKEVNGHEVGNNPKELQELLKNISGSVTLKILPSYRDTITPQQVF

| Binder | pKd |
| --- | --- |
| TNSKQGETTV [FZD1, Q9UP38] | below the threshold |

target: T10, SYNJ2BP, P57105; assay: holdup assay; design: key: below the threshold = too weak to quantify, mostly under pKd 3.1 to 4; conditions: plain residues with an end cap or a label only (N-terminal biotin on a linker: ado-ado)
T10 sequence (P57105 8-110, limits assumed, looked up): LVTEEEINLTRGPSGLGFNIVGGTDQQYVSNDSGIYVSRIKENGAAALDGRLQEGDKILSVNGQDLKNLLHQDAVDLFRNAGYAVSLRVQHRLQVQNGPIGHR

| Binder | pKd |
| --- | --- |
| TNSKQGETTV [FZD1, Q9UP38] | 4.7 |

target: MAGI1_1, Q96QZ7; assay: holdup assay; design: key: below the threshold = too weak to quantify, mostly under pKd 3.1 to 4; conditions: plain residues with an end cap or a label only (N-terminal biotin on a linker: ado-ado)
Sequence (Q96QZ7 1-106): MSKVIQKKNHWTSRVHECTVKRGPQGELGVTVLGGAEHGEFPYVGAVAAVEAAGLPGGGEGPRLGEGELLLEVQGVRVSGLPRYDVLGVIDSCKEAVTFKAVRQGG

| Binder | pKd |
| --- | --- |
| TNSKQGETTV [FZD1, Q9UP38] | below the threshold |

target: T11, APBA1_2, Q02410; assay: holdup assay; design: key: below the threshold = too weak to quantify, mostly under pKd 3.1 to 4; conditions: plain residues with an end cap or a label only (N-terminal biotin on a linker: ado-ado)
T11 sequence (Q02410 742-832, limits assumed, looked up): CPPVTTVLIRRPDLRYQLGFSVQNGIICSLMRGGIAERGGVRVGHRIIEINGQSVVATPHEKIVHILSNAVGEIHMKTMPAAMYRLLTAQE

| Binder | pKd |
| --- | --- |
| TNSKQGETTV [FZD1, Q9UP38] | 3.74 |

target: T12, PDZD7_3, Q9H5P4; assay: holdup assay; design: key: below the threshold = too weak to quantify, mostly under pKd 3.1 to 4; conditions: plain residues with an end cap or a label only (N-terminal biotin on a linker: ado-ado)
T12 sequence (Q9H5P4 857-944, limits assumed, looked up): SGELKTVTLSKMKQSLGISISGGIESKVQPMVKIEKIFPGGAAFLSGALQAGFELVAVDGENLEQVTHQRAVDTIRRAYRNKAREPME

| Binder | pKd |
| --- | --- |
| TNSKQGETTV [FZD1, Q9UP38] | 4.53 |
